Experimental data reported in PMC9601147.

Experiments:
Test in all cases: SEC
[1] = target: His6 tagged recombinant IN(D256R/R262A/R263A) (HIV-1 (NL4-3))
[2] = target: His6 tagged recombinant IN(R269A/K273A/D256N/D270N) (HIV-1 (NL4-3))
[3] = target: His6 tagged recombinant IN(R269A/K273A/D256R) (HIV-1 (NL4-3))

## His6 tagged recombinant IN(D256R/R262A/R263A) (enzyme)
[1]
  stoichiometry N: 4

## His6 tagged recombinant IN(R269A/K273A/D256N/D270N) (enzyme)
[2]
  stoichiometry N: 4

## His6 tagged recombinant IN(R269A/K273A/D256R) (enzyme)
[3]
  stoichiometry N: 4
